This is an account of results in patent publication US12648942B2, “Method for treating acute ischemic stroke” (Lumosa Therapeutics Co., LTD, priority 2021, dated 2026).

Like-named read-outs stand apart in the source and are kept apart here.

In one data set the test system is minipigs. The experiment in a line: Pre-clinical toxicity in minipig. In kind it is in vivo. As to conditions: set from pre-clinical toxicity result in minipigs. How it is done:
According to inventors' pre-clinical toxicity result of DC009 in minipig, the inventors set up a limit on plasma exposure of 1177 ng/mL in minipigs. The inventors then set up a safety factor to provide a margin of safety for protecting human subjects receiving the initial clinical dose. As described in the Background, the default safety factor is 10 but it may be adjusted based on available safety data.

Data set [1] can be described thus: Study 101: safety and tolerability of single doses in healthy subjects. The class given is in vivo. As to conditions: both sexes, human, plasma, intravenous; from Subject 001-008 and Subject 001-042, 0.05 mg/kg; read-out: Cmax at which DC009 was tolerable in human. The text has this: (§1) The primary objective of this Phase 1, double-blind, randomized, placebo-controlled study was to determine the safety, tolerability, and pharmacokinetics of single ascending doses of DC009 drug product administered by 15-minute IV infusion in healthy subjects. The secondary objectives were to characterize the pharmacodynamics of single-ascending doses, explore the pharmacokinetic-pharmacodynamic relationships of single-ascending doses, and to determine the RP2D of the DC009 drug product.
(§2) The subject population was healthy adult male and female subjects between the ages of 18 and 65 years. Sixteen healthy subjects completed the study. All subjects received a single dose of DC009 drug product or placebo administered via a 15-minute IV infusion.
Cohort 1 (8 subjects) was administered 0.05 mg/kg DC009 drug product or placebo, and Cohort 0 (8 subjects) was administered 0.025 mg/kg DC009 drug product or placebo. […]

Data set [2] can be described thus: Study 101: pharmacokinetics of single doses in healthy subjects. In kind it is in vivo, human.
Description: as §1, §2
Cohort 1 (8 subjects) was administered 0.05 mg/kg DC009 drug product or placebo, and Cohort 0 (8 subjects) was administered 0.025 mg/kg DC009 drug product or placebo.
Primary Endpoints: • Nature and severity of adverse events (AEs) and number of subjects with AEs • Changes from baseline in vital signs, electrocardiogram (ECG) results, laboratory abnormalities, plasmin-antiplasmin complex, euglobulin clot lysis time, platelet aggregation, and physical examination findings • Pharmacokinetic parameters: maximum plasma concentration (Cmax), time to reach the observed maximum (peak) concentration (Tmax), area under the plasma concentration-time curve from time zero to the time of the last quantifiable concentration (AUC0-t), elimination half-life (T1/2), total body clearance of the drug from plasma (CL), and volume of distribution Secondary Endpoints • Pharmacodynamic effects of DC009 drug product on blood pressure, thrombin time (TT), prothrombin time (PT), euglobulin clot lysis time, and activated partial thromboplastin time (aPTT) up to 48 hours after dosing • Relationship between DC009 plasma concentrations and the selected PD and safety parameters • RP2D (recommended phase II dose) Results
The pharmacokinetic parameters of DC009 drug product were assessed included maximum plasma concentration (Cmax), time to reach Cmax (Tmax), area under the plasma concentration-time curve from time zero to infinity (AUC0-∞), area under the plasma concentration-time curve from time zero to the time of the last quantifiable concentration (AUC0-t), elimination half-life (T1/2), total body clearance of the drug from plasma (CL), and volume of distribution at steady state (Vss). A single sample of blood was collected at the following time points for the quantification of DC009 in plasma: at predose, 5, 10, 15 (end of infusion), 20, 25, 30, and 45 minutes; and at 1, 2, 4, 6, 12, 18, and 24 hours after infusion was initiated.

Setting [3] is: 0.025 mg/kg dose to the 0.05 mg/kg dose.

Take `CC(NC(=O)C1CCCN1)C(=O)NC(CCCCN)C(=O)NCCCCC(NC(=O)C1Cc2cc(O)c(O)cc2C(C)(C)N1)C(=O)O` (stereo not drawn) [DC009, 3S-6,7-dihydroxy-1,1-dimethyl-1,2,3,4-tetrahydro-isoquinoline-3-acyl-Lys(Pro-Ala-Lys)]: the “limit on plasma exposure” value with minipigs came out at 1177 ng/mL. The Cmax in data set [1] is about 150 ng/mL; in data set [2] (Cohort 1, 0.05 mg/kg, single 15-minute IV infusion, individual subjects), 120 ng/mL; in data set [2] (both sexes, human, plasma, iv, 0.025 mg/kg, Cohort 0, 0.025 mg/kg, single 15-minute IV infusion, Mean ± SEM, read-out: Cmax), under 110 ng/mL; in data set [2] (both sexes, human, plasma, iv, 0.05 mg/kg, Cohort 1, 0.05 mg/kg, single 15-minute IV infusion, Mean ± SEM, read-out: Cmax), under 110 ng/mL; in data set [2] (both sexes, human, plasma, iv, 0.05 mg/kg, Cohort 1, 0.05 mg/kg, single 15-minute IV infusion, individual subjects, read-out: Cmax) it was 152 ng/mL. Also, the “dose-normalized geometric mean ratio for AUC0-inf” value in data set [2] (setting [3]) amounted to 1.40. Further, the “dose-normalized geometric mean ratio for Cmax” value in data set [2] (setting [3]) is listed as 1.46. Moreover, the “time measurable in plasma samples after the start of the infusion” value in data set [2] (0.025 and 0.05 mg/kg, single 15-minute IV infusion) is “only measurable within the first half-hour”. Further, in data set [2] (0.025 vs 0.05 mg/kg), the “dose proportionality of exposure” value was “approximately dose proportional”. Besides, the half-life was 3 to 4.2 min in data set [2] (both sexes, human, plasma, iv, 0.025 and 0.05 mg/kg, single 15-minute IV infusion, read-out: T1/2, range); 3.24 min in data set [2] (both sexes, human, plasma, iv, 0.025 and 0.05 mg/kg, single 15-minute IV infusion, read-out: mean of T1/2 (converted)). Moreover, the time of peak concentration (Tmax) in data set [2] (both sexes, human, plasma, 0.025 and 0.05 mg/kg, single 15-minute IV infusion) lay within 6 to 18 min.

The term Cmax denotes the highest concentration seen after dosing. The Tmax is the time from dosing to the highest level.
